Assay results reported in article PMC5296606, “A Ferredoxin- and F420H2-Dependent, Electron-Bifurcating, Heterodisulfide Reductase with Homologs in the Domains Bacteria and Archaea” (mBio, 2017).

What was measured:
Type in all cases: biochemical, Methanosarcina acetivorans
[1] = substrate: O=S(=O)(O)CCS; assay: reverse heterodisulfide reductase assay; settings: co-substrate HSCoB, 21 °C
[2] = substrate: C[C@@H](OP(=O)(O)O)[C@H](NC(=O)CCCCCCS)C(=O)O; assay: reverse heterodisulfide reductase assay; settings: co-substrate HSCoM, 21 °C
[3] = substrate: C[C@@H](OP(=O)(O)O)[C@H](NC(=O)CCCCCCSSCCS(=O)(=O)O)C(=O)O; assay: forward heterodisulfide reductase assay with reduced methyl viologen; settings: reduced methyl viologen as electron donor, 21 °C, HdrA2 + HdrB2C2, no ferredoxin
Description: forward heterodisulfide reductase assay with reduced methyl viologen on HdrA2B2C2

B1: HdrB2C2 (Methanosarcina acetivorans C2A) (protein)
chain: MAKLSLFRGCIVPNRYPGIEKATKLCLQKLEVDAVDLPGASCCPAPGVFKSFDKATWLALASRNIVLSERMGRDILTVCNGCYGSLADANIELKNDPEMKACTNSCLKEIGMEYKGTAEVRHIIEFLYKELGPEKLKSFITTPLDLKVALHYGCHLIKPSKERNLGETEAPVFFDELVEATGAKSVDYTDKMMCCGAGGGVRSGHAAESLEMLEHKLACIRNAGVDCIVNACPFCHLQFDRGQLAVNEKFGTDYSIPVLHYSQLLGLALGFSPDELGIEQNAIQNIEFLAKIYEISAGLR
notes: with Heterodisulfide reductase subunit C2 (CoB--CoM heterodisulfide reductase iron-sulfur subunit C 2)
- Km ([1]; no HdrA2): 1400 ± 200 µM
- Vmax ([1]; no HdrA2): 0.6 µmol/min/mg
- Km ([2]; no HdrA2): 1200 ± 200 µM

B2: HdrB2 (Methanosarcina acetivorans C2A) (protein)
chain: MAKLSLFRGCIVPNRYPGIEKATKLCLQKLEVDAVDLPGASCCPAPGVFKSFDKATWLALASRNIVLSERMGRDILTVCNGCYGSLADANIELKNDPEMKACTNSCLKEIGMEYKGTAEVRHIIEFLYKELGPEKLKSFITTPLDLKVALHYGCHLIKPSKERNLGETEAPVFFDELVEATGAKSVDYTDKMMCCGAGGGVRSGHAAESLEMLEHKLACIRNAGVDCIVNACPFCHLQFDRGQLAVNEKFGTDYSIPVLHYSQLLGLALGFSPDELGIEQNAIQNIEFLAKIYEISAGLR
- Km ([1]; HdrB2 alone): 1200 ± 300 µM
- Vmax ([1]; HdrB2 alone): 0.5 µmol/min/mg
- Km ([2]; HdrB2 alone): 1100 ± 200 µM

B3: HdrA2B2C2 (Methanosarcina acetivorans C2A) (protein)
chain: MAKLSLFRGCIVPNRYPGIEKATKLCLQKLEVDAVDLPGASCCPAPGVFKSFDKATWLALASRNIVLSERMGRDILTVCNGCYGSLADANIELKNDPEMKACTNSCLKEIGMEYKGTAEVRHIIEFLYKELGPEKLKSFITTPLDLKVALHYGCHLIKPSKERNLGETEAPVFFDELVEATGAKSVDYTDKMMCCGAGGGVRSGHAAESLEMLEHKLACIRNAGVDCIVNACPFCHLQFDRGQLAVNEKFGTDYSIPVLHYSQLLGLALGFSPDELGIEQNAIQNIEFLAKIYEISAGLR
notes: complex reconstituted by mixing recombinant HdrA2 (C-terminal His6) with copurified HdrB2C2 (His6 on HdrB2); with Heterodisulfide reductase subunit C2 (CoB--CoM heterodisulfide reductase iron-sulfur subunit C 2); H(2)/F420-type heterodisulfide reductase subunit A2 (CoB--CoM heterodisulfide reductase iron-sulfur subunit A 2; HdrA-MvhD fusion)
- Km [3]: 50 ± 10 µM
- Vmax [3]: 2.2 µmol/min/mg
